# Reference: US20160145321A1 (CRUCELL HOLLAND B V, published 2016)
# B1: CB028.2 (antibody, V domains shown)
# VH: QVQLVQSGAEVKKPGASVKVSCKASGYTFTTYGITWVRQAPGQGLEWMGWISGDSDNTNYAQNLQGRVTLTTDISTRTAYMELRSLKPDDTAMYYCARALAKWYCSSSSCFCGGGSCYSDYWGQGTLVTVSS
# VL: DIQMTQSPSSLSASVGDRVTITCRASQGMSNYLNWYQQKPGKAPELLIYAASTLQSGVPSRFSGSGSGTDFTLTINSLQPEDFATYFCQQSFSTPLTFGGGTKVEIK
# B2: CB010.7 (antibody, V domains shown)
# VH: QVQLVESGGGVVQPGRSLRLSCAASGFTFNTHGMHWVRQAPGKGLEWVAVMSYDGTKKYHADSVKGRFTISRDNSKNTLYLQMNSLRVEDTAIYYCAKVGELRSFDWLLADGTAYYYYGMDVWGQGTTVTVSS
# VL: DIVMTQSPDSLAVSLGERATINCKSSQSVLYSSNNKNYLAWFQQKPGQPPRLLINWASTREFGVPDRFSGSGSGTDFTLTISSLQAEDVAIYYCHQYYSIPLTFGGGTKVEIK
# B3: CB048.3 (antibody, V domains shown)
# VH: QVQLVESGGGVVQPGRSLRLSCAASGFTFSNHGMHWVRQAPGKGLEWVAVISYDGNKKYYADSVKGRFTVSRDNSKNTLSLQMDSLRAEDTAIYYCAKTTFYFDDSNYYEYLDYWGQGTLVTVSS
# VL: DIQLTQSPSFLSASVGDRVTITCRASQGIRSYLAWYQQKPGKAPKLLIYAASTLQSGVPSRFSGGGSGTEFTLTISSLQPEDSATYYCQQLNTSPPYTFGQGTKLEIK
# B4: CB058.1 (antibody, V domains shown)
# VH: EVQLVESGGGLVQPGGSLRLSCVASGFTFSSYAMSWVRQAPGKGLEWVSAIRGSVDNTYYADSVKGRFTISRDNSKNTLYLQMNSLRVEDTAVYYCAKDPALYCSGETCFSDLTDWGQGTLVTVSS
# VL: DIQMTQSPSSLSASVGDRVTITCRASQGINNYLAWFQQKPGKAPKSLIYAASTLPSGVPSRFSGSGSGTDFTLTISSLQPEDSATYFCQHYIRYPHTFGQGTKLEIK
# B5: CB002.1 (antibody, V domains shown)
# VH: QVQLQESGPRLVKPSETLSLTCTVSGGSTSSYFWNWIRQPPGKGLEWIGYIYGSGSADYNPSLKSRVTISIDTSKTQFSLKLTSVTAADTAVYYCARSGFCTNDACYRRGSWFDPWGQGTLVTVSS
# VL: DIQMTQSPSSLSASVGDRVTITCRASQSIDNYLNWYQQKPGKAPKLLIYAASSLQSGVPSRFSGSGSGTDFTLTVSSLHPEDFATYYCQQSYSTLTWTFGQGTKVEIK
# notes: also called CB2.1
# B6: CB003.1 (antibody, V domains shown)
# VH: QVQLVQSGPELRKPGASVTVSCKASGYTFTTYYIHWVRQAPGGGLDWMGMINTGSGVTSYAQKFQGRVAMTRDTSTSTVFMELSSLRFEDTALYYCARMYSGSWYPFDYWGQGALVTVSS
# VL: EIVLTQSPGTLSLSPGERATLSCRASQNINGNYLAWYQQKPGLAPRLLIYEASSRATGIPDRFSGSGSGTDFTLTISSLEPEDFGVYYCQQYGTSPFFTFGPGTKVDIK
# Biological target: T1, Recombinant RSV attachment protein (G protein) corresponding to RSV B/B1 (Respiratory syncytial virus B/B1, UniProt O36633 65-299)
# T1 sequence: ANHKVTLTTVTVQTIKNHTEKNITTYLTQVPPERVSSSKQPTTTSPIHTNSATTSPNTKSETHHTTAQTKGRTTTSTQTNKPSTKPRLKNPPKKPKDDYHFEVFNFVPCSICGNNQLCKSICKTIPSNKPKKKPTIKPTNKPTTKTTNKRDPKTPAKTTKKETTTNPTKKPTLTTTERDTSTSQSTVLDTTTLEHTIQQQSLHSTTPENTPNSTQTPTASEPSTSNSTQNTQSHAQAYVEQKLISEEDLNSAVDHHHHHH
# Test: ELISA, coated recombinant protein (Example 6)
row,Binder,binding result
1,B1,binds
2,B2,binds
3,B3,binds
4,B4,binds
5,B5,binds

# Biological target: T2, Recombinant RSV attachment protein (G protein) corresponding to RSV A/Long (Respiratory syncytial virus A/Long, UniProt P20895 65-298)
# T2 construct: also called RSV Ga; Ga
# T2 sequence: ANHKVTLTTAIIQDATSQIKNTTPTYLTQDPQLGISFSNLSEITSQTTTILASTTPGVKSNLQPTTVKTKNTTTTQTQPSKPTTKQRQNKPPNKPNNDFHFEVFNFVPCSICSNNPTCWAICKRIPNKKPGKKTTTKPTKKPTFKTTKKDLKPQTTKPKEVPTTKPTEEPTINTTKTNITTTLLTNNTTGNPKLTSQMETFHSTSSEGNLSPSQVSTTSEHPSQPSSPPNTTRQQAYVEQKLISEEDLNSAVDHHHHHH
# Test: ELISA, coated recombinant protein (Example 6)
row,Binder,binding result
1,B1,binds
2,B3,binds
3,B4,binds
4,B5,binds

# Biological target: T3, G protein of RSV A/A2 (virus, ATCC Cat. No. VR-1540) (Respiratory syncytial virus A/A2, UniProt P03423 1-298)
# T3 sequence: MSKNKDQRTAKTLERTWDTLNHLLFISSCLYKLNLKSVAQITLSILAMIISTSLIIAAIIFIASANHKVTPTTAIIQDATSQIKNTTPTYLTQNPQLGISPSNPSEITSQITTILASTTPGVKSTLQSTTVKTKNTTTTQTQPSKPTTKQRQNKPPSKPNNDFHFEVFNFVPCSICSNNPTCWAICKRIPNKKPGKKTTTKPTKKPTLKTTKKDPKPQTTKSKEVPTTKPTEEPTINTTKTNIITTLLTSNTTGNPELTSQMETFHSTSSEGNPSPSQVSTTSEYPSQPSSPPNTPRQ
# Test: cell-based or functional assay
row,Binder,"Neutralization IC50 (plaque reduction assay, Vero cells)"
1,B6,0.0315 µg/mL
2,B2,0.0165 µg/mL
3,B3,0.0167 µg/mL
4,B4,0.0144 µg/mL
5,B5,0.0355 µg/mL

# Biological target: T4, G protein of RSV B/18537 (virus, ATCC Cat. No. VR-1580) (Respiratory syncytial virus B/18537, UniProt P20896 1-292)
# T4 sequence: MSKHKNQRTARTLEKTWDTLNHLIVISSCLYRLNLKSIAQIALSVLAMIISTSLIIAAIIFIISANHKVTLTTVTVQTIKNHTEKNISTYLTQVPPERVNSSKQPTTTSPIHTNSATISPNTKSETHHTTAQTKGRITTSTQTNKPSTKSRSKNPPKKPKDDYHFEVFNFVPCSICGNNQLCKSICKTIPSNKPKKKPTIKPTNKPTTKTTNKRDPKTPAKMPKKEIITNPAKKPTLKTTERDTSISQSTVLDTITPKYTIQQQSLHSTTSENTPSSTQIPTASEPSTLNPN
# Test: cell-based or functional assay
row,Binder,"Neutralization IC50 (plaque reduction assay, Vero cells)"
1,B6,0.0246 µg/mL
2,B1,0.0196 µg/mL
3,B2,0.0141 µg/mL

# Biological target: T5, G protein of RSV A/Long (virus, ATCC Cat. No. VR-26) (Respiratory syncytial virus A/Long, UniProt P20895 1-298)
# T5 sequence (looked up): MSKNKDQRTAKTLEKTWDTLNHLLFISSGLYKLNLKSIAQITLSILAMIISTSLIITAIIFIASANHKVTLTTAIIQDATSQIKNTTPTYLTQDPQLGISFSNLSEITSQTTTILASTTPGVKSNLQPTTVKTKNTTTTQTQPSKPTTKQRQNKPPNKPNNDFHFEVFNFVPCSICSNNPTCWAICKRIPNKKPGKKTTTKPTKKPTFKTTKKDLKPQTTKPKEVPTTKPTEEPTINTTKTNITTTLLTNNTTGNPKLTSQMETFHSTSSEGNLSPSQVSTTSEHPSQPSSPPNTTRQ
# Test: cell-based or functional assay
row,Binder,"Neutralization IC50 (plaque reduction assay, Vero cells)"
1,B6,0.016 µg/mL
2,B2,0.012 µg/mL
